± gives the uncertainty stated by the source.
B1: Peroxisome proliferator-activated receptor delta, residues 71 to 145; numbered along this chain, Q03181 (parent)
chain: NMECRVCGDKASGFHYGVHACEGCKGFFRRTIRMKLEYEKCERSCKIQKKNRNKCQYCRFQKCLALGMSHNAIRF

Variants of: B1
Experiment: abundance fitness (aPCA) (normalised: wild type 0, dead -1); higher = more abundant; growth selection in yeast, the domain comes from the species named
Details: Homo sapiens

In order of falling abundance fitness:
1. NMECRVCGDKASGFHYGVHACEGCKGFFRRTIRMKLEYEKCERSCKIQKKNRNKCQYCRFQKCLALGMSDNAIRF  0.394 ± 0.1
2. NMECRVCGDKASGFHYGVHACEGCKGFFRRTIRMKLEYEKCERSCKIQKKNRNKCQYCRFQKCLALGMSINAIRF  0.198 ± 0.09
3. NMECRVCGDKASGFHYGVHACEGCKGFFRRTIRMKLEYEKCERSCKIQKKNRNKCQYCRFQKCLALGMSPNAIRF  0.185 ± 0.12
4. NMECRVCGDKASGFHYGVHACEGCKGFFRRTIRMKLEYEKCERSCKIQKKNRNKCQYCRFQKCLALGMSENAIRF  0.172 ± 0.091
5. NMECRVCGDKASGFHYGVHACEGCKGFFRRTIRMKLEYEKCERSCKIQKKNRNKCQYCRFQKCLALGMSTNAIRF  0.157 ± 0.11
6. NMECRVCGDKASGFHYGVHACEGCKGFFRRTIRMKLEYEKCERSCKIQKKNRNKCQYCRFQKCLALGMDHNAIRF  0.147 ± 0.05
7. NMECRVCGDKASGFHYGVHACEGCKGFFRRTIRMKLEYEKCERSCKIQKKNRNKCQYCRFQKCLALGMSHEAIRF  0.142 ± 0.048
8. NMECRVCGDKASGFHYGVHACEGCKGFFRRTIRMKLEYEKCERSCKIQKKNRNKCQYCRFQKCLALGMSQNAIRF  0.108 ± 0.095
9. NMECRVCGDKASGFHYGVHACEGCKGFFRRTIRMKLEYEKCERSCKIQKKNRNKCQYCRFQKCLALGMSHDAIRF  0.103 ± 0.064
10. NMECRVCGDKASGFHYGVHACEGCKGFFRRTIRMKLEYEKCERSCKIQKKNRNKCQYCRFQKCLALGMSVNAIRF  0.099 ± 0.065
11. NMECRVCGDKASGFHYGVHACEGCKGFFRRTIRMKLEYEKCERSCKIQKKNRNKCQYCRFQKCLALGMSHPAIRF  0.095 ± 0.047
12. NMECRVCGDKASGFHYGVHACEGCKGFFRRTIRMKLEYEKCERSCKIQKKNRNKCQYCRFQKCLALGMSMNAIRF  0.09 ± 0.08
13. NMECRVCGDKASGFHYGVHACEGCKGFFRRTIRMKLEYEKCERSCKIQKKNRNKCQYCRFQKCLALGMQHNAIRF  0.088 ± 0.058
14. NMECRVCGDKASGFHYGVHACEGCKGFFRRTIRMKLEYEKCERSCKIQKKNRNKCQYCRFQKCLALGMSRNAIRF  0.063 ± 0.052
15. NMECRVCGDKASGFHYGVHACEGCKGFFRRTIRMKLEYEKCERSCKIQKKNRNKCQYCRFQKCLALGMSGNAIRF  0.048 ± 0.055
16. NMECRVCGDKASGFHYGVHACEGCKGFFRRTIRMKLEYEKCERSCKIQKKNRNKCQYCRFQKCLALGMSFNAIRF  0.039 ± 0.15
17. NMECRVCGDKASGFHYGVHACEGCKGFFRRTIRMKLEYEKCERSCKIQKKNRNKCQYCRFQKCLALGMSHQAIRF  0.034 ± 0.051
18. NMECRVCGDKASGFHYGVHACEGCKGFFRRTIRMKLEYEKCERSCKIQKKNRNKCQYCRFQKCLALGMMHNAIRF  0.029 ± 0.054
19. NMECRVCGDKASGFHYGVHACEGCKGFFRRTIRMKLEYEKCERSCKIQKKNRNKCQYCRFQKCLALGMKHNAIRF  0.023 ± 0.051
20. NMECRVCGDKASGFHYGVHACEGCKGFFRRTIRMKLEYEKCERSCKIQKKNRNKCQYCRFQKCLALGMEHNAIRF  0.022 ± 0.043
21. NMECRVCGDKASGFHYGVHACEGCKGFFRRTIRMKLEYEKCERSCKIQKKNRNKCQYCRFQKCLALGMSANAIRF  0.02 ± 0.084
22. NMECRVCGDKASGFHYGVHACEGCKGFFRRTIRMKLEYEKCERSCKIQKKNRNKCQYCRFQKCLALGMSKNAIRF  0.019 ± 0.1
23. NMECRVCGDKASGFHYGVHACEGCKGFFRRTIRMKLEYEKCERSCKIQKKNRNKCQYCRFQKCLALGMSSNAIRF  0.015 ± 0.067
24. NMECRVCGDKASGFHYGVHACEGCKGFFRRTIRMKLEYEKCERSCKIQKKNRNKCQYCRFQKCLALGMSNNAIRF  0.013 ± 0.087
25. NMECRVCGDKASGFHYGVHACEGCKGFFRRTIRMKLEYEKCERSCKIQKKNRNKCQYCRFQKCLALGMGHNAIRF  -0.001 ± 0.035
26. NMECRVCGDKASGFHYGVHACEGCKGFFRRTIRMKLEYEKCERSCKIQKKNRNKCQYCRFQKCLALGMAHNAIRF  -0.007 ± 0.045
27. NMECRVCGDKASGFHYGVHACEGCKGFFRRTIRMKLEYEKCERSCKIQKKNRNKCQYCRFQKCLALGMTHNAIRF  -0.013 ± 0.052
28. NMECRVCGDKASGFHYGVHACEGCKGFFRRTIRMKLEYEKCERSCKIQKKNRNKCQYCRFQKCLALGMSHAAIRF  -0.036 ± 0.045
29. NMECRVCGDKASGFHYGVHACEGCKGFFRRTIRMKLEYEKCERSCKIQKKNRNKCQYCRFQKCLALGMSHGAIRF  -0.038 ± 0.035
30. NMECRVCGDKASGFHYGVHACEGCKGFFRRTIRMKLEYEKCERSCKIQKKNRNKCQYCRFQKCLALGMHHNAIRF  -0.045 ± 0.089
31. NMECRVCGDKASGFHYGVHACEGCKGFFRRTIRMKLEYEKCERSCKIQKKNRNKCQYCRFQKCLALGMLHNAIRF  -0.053 ± 0.047
32. NMECRVCGDKASGFHYGVHACEGCKGFFRRTIRMKLEYEKCERSCKIQKKNRNKCQYCRFQKCLALGMVHNAIRF  -0.057 ± 0.043
33. NMECRVCGDKASGFHYGVHACEGCKGFFRRTIRMKLEYEKCERSCKIQKKNRNKCQYCRFQKCLALGMNHNAIRF  -0.118 ± 0.08
34. NMECRVCGDKASGFHYGVHACEGCKGFFRRTIRMKLEYEKCERSCKIQKKNRNKCQYCRFQKCLALGMSHKAIRF  -0.127 ± 0.051
35. NMECRVCGDKASGFHYGVHACEGCKGFFRRTIRMKLEYEKCERSCKIQKKNRNKCQYCRFQKCLALGMCHNAIRF  -0.138 ± 0.063
36. NMECRVCGDKASGFHYGVHACEGCKGFFRRTIRMKLEYEKCERSCKIQKKNRNKCQYCRFQKCLALGWSHNAIRF  -0.148 ± 0.049
37. NMECRVCGDKASGFHYGVHACEGCKGFFRRTIRMKLEYEKCERSCKIQKKNRNKCQYCRFQKCLALGMSYNAIRF  -0.162 ± 0.14
38. NMECRVCGDKASGFHYGVHACEGCKGFFRRTIRMKLEYEKCERSCKIQKKNRNKCQYCRFQKCLALGMRHNAIRF  -0.162 ± 0.042
39. NMECRVCGDKASGFHYGVHACEGCKGFFRRTIRMKLEYEKCERSCKIQKKNRNKCQYCRFQKCLALGMSHHAIRF  -0.173 ± 0.074
40. NMECRVCGDKASGFHYGVHACEGCKGFFRRTIRMKLEYEKCERSCKIQKKNRNKCQYCRFQKCLALGMSWNAIRF  -0.177 ± 0.072
41. NMECRVCGDKASGFHYGVHACEGCKGFFRRTIRMKLEYEKCERSCKIQKKNRNKCQYCRFQKCLALGMWHNAIRF  -0.191 ± 0.059
42. NMECRVCGDKASGFHYGVHACEGCKGFFRRTIRMKLEYEKCERSCKIQKKNRNKCQYCRFQKCLALGMSCNAIRF  -0.206 ± 0.12
43. NMECRVCGDKASGFHYGVHACEGCKGFFRRTIRMKLEYEKCERSCKIQKKNRNKCQYCRFQKCLALGMYHNAIRF  -0.213 ± 0.095
44. NMECRVCGDKASGFHYGVHACEGCKGFFRRTIRMKLEYEKCERSCKIQKKNRNKCQYCRFQKCLALGMSHCAIRF  -0.246 ± 0.089
45. NMECRVCGDKASGFHYGVHACEGCKGFFRRTIRMKLEYEKCERSCKIQKKNRNKCQYCRFQKCLALGMFHNAIRF  -0.268 ± 0.075
46. NMECRVCGDKASGFHYGVHACEGCKGFFRRTIRMKLEYEKCERSCKIQKKNRNKCQYCRFQKCLALGMSHIAIRF  -0.361 ± 0.14
47. NMECRVCGDKASGFHYGVHACEGCKGFFRRTIRMKLEYEKCERSCKIQKKNRNKCQYCRFQKCLALGMSHMAIRF  -0.394 ± 0.081
48. NMECRVCGDKASGFHYGVHACEGCKGFFRRTIRMKLEYEKCERSCKIQKKNRNKCQYCRFQKCLALGMSHLAIRF  -0.412 ± 0.054
49. NMECRVCGDKASGFHYGVHACEGCKGFFRRTIRMKLEYEKCERSCKIQKKNRNKCQYCRFQKCLALGMPHNAIRF  -0.461 ± 0.092
50. NMECRVCGDKASGFHYGVHACEGCKGFFRRTIRMKLEYEKCERSCKIQKKNRNKCQYCRFQKCLALGMSHFAIRF  -0.477 ± 0.11
51. NMECRVCGDKASGFHYGVHACEGCKGFFRRTIRMKLEYEKCERSCKIQKKNRNKCQYCRFQKCLALGFSHNAIRF  -0.529 ± 0.11
52. NMECRVCGDKASGFHYGVHACEGCKGFFRRTIRMKLEYEKCERSCKIQKKNRNKCQYCRFQKCLALRMSHNAIRF  -0.584 ± 0.052
53. NMECRVCGDKASGFHYGVHACEGCKGFFRRTIRMKLEYEKCERSCKIQKKNRNKCQYCRFQKCLALGPSHNAIRF  -0.64 ± 0.11
54. NMECRVCGDKASGFHYGVHACEGCKGFFRRTIRMKLEYEKCERSCKIQKKNRNKCQYCRFQKCLALGVSHNAIRF  -0.652 ± 0.074
55. NMECRVCGDKASGFHYGVHACEGCKGFFRRTIRMKLEYEKCERSCKIQKKNRNKCQYCRFQKCLALWMSHNAIRF  -0.666 ± 0.1
56. NMECRVCGDKASGFHYGVHACEGCKGFFRRTIRMKLEYEKCERSCKIQKKNRNKCQYCRFQKCLALGQSHNAIRF  -0.668 ± 0.12
57. NMECRVCGDKASGFHYGVHACEGCKGFFRRTIRMKLEYEKCERSCKIQKKNRNKCQYCRFQKCLALVMSHNAIRF  -0.673 ± 0.075
58. NMECRVCGDKASGFHYGVHACEGCKGFFRRTIRMKLEYEKCERSCKIQKKNRNKCQYCRFQKCLALTMSHNAIRF  -0.687 ± 0.12
59. NMECRVCGDKASGFHYGVHACEGCKGFFRRTIRMKLEYEKCERSCKIQKKNRNKCQYCRFQKCLALSMSHNAIRF  -0.694 ± 0.077
60. NMECRVCGDKASGFHYGVHACEGCKGFFRRTIRMKLEYEKCERSCKIQKKNRNKCQYCRFQKCLALGDSHNAIRF  -0.696 ± 0.16
61. NMECRVCGDKASGFHYGVHACEGCKGFFRRTIRMKLEYEKCERSCKIQKKNRNKCQYCRFQKCLALGRSHNAIRF  -0.698 ± 0.065
62. NMECRVCGDKASGFHYGVHACEGCKGFFRRTIRMKLEYEKCERSCKIQKKNRNKCQYCRFQKCLALGISHNAIRF  -0.703 ± 0.15
63. NMECRVCGDKASGFHYGVHACEGCKGFFRRTIRMKLEYEKCERSCKIQKKNRNKCQYCRFQKCLALGYSHNAIRF  -0.718 ± 0.16
64. NMECRVCGDKASGFHYGVHACEGCKGFFRRTIRMKLEYEKCERSCKIQKKNRNKCQYCRFQKCLALGLSHNAIRF  -0.725 ± 0.089
65. NMECRVCGDKASGFHYGVHACEGCKGFFRRTIRMKLEYEKCERSCKIQKKNRNKCQYCRFQKCLALGSSHNAIRF  -0.746 ± 0.1
66. NMECRVCGDKASGFHYGVHACEGCKGFFRRTIRMKLEYEKCERSCKIQKKNRNKCQYCRFQKCLALGTSHNAIRF  -0.769 ± 0.14
67. NMECRVCGDKASGFHYGVHACEGCKGFFRRTIRMKLEYEKCERSCKIQKKNRNKCQYCRFQKCLALGKSHNAIRF  -0.769 ± 0.14
68. NMECRVCGDKASGFHYGVHACEGCKGFFRRTIRMKLEYEKCERSCKIQKKNRNKCQYCRFQKCLALGHSHNAIRF  -0.771 ± 0.25
69. NMECRVCGDKASGFHYGVHACEGCKGFFRRTIRMKLEYEKCERSCKIQKKNRNKCQYCRFQKCLALGESHNAIRF  -0.794 ± 0.12
70. NMECRVCGDKASGFHYGVHACEGCKGFFRRTIRMKLEYEKCERSCKIQKKNRNKCQYCRFQKCLALGNSHNAIRF  -0.81 ± 0.37
71. NMECRVCGDKASGFHYGVHACEGCKGFFRRTIRMKLEYEKCERSCKIQKKNRNKCQYCRFQKCLALGGSHNAIRF  -0.822 ± 0.081
72. NMECRVCGDKASGFHYGVHACEGCKGFFRRTIRMKLEYEKCERSCKIQKKNRNKCQYCRFQKCLALYMSHNAIRF  -0.854 ± 0.23
73. NMECRVCGDKASGFHYGVHACEGCKGFFRRTIRMKLEYEKCERSCKIQKKNRNKCQYCRFQKCLALGCSHNAIRF  -0.9 ± 0.17
